A short description of data set [1]: cell-surface flow cytometry, MCF-7. (In general: Flow cytometry measures light scatter and fluorescence of single cells or particles in a stream.)
Data set [2] is described as follows: cell-surface flow cytometry, MDA-MB-231.
Where [3] appears, read: glycan lost, control: WT-PD-L1 MCF-7 cells.
The mark [4] stands for this setting: glycan lost, control: WT-PD-L1 MDA cells.

For the substance PD-L1: N35A-PD-L1, the expression_or_secretion result in data set [1] (setting [3]) and in data set [2] (setting [4]) was “no change” throughout.

As to PD-L1: N192A-PD-L1, the expression_or_secretion result in data set [1] (setting [3]) and in data set [2] (setting [4]) was “no change” in each case.

As for PD-L1: N200A-PD-L1, the expression_or_secretion entry in data set [1] (setting [3]) and in data set [2] (setting [4]) was “no change” throughout.

As to PD-L1: N219A-PD-L1, the expression_or_secretion result in data set [1] (setting [3]) and in data set [2] (setting [4]) was “no change” in each case.

Consider PD-L1: kifunensine, for which the expression_or_secretion entry is “no change” in data set [1] (glycan changed form, control: vehicle-treated WT-PD-L1 MCF-7 cells) and “no change” in data set [2] (glycan changed form, control: vehicle-treated WT-PD-L1 MDA cells).

The values above are taken from article PMC10571791.
